In US12460006B2, “Antibodies against integrin alpha 11 beta 1” (Momenta Pharmaceuticals, Inc., priority 2019, dated 2025):

T1: I domain of α11β1 (Homo sapiens, UniProt Q9UKX5)
T1 construct: An in-house generated I domain of α11β1 was used; made in house
T1 sequence (Q9UKX5 164-345 limits assumed): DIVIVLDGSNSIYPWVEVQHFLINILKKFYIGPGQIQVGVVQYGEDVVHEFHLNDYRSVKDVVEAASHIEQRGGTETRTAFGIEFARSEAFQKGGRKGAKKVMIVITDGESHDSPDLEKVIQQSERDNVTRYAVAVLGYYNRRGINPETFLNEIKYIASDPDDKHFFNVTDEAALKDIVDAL

B1: 6G4: rabbit anti-α11β1 mAb; heavy chain SEQ ID NO: 181, light chain SEQ ID NO: 182 (antibody)
heavy: METGLRWLLLVAVLKGVQCQQQLEESGGGLVKPGGTLTLTCKASGVALNPYYYMCWVRQAPGKGLEWIACVDADSSGSTYYASWAKGRFTISKTSSTTVTLKMTSLTAADTATYFCARESVDYSSVGIGYVHGTDGLWGPGTLVTVSSGQPKAPSVFPLAPCCGDTPSSTVTLGCLVKGYLPEPVTVTWNSGTLTNGVRTFPSVRQSSGLYSLSSVVSVTSSSQPVTCNVAHPATNTKVDKTVAPSTCSKPMCPPPELPGGPSVFIFPPKPKDTLMISRTPEVTCVVVDVSQDDPEVQFTWYINNEQVRTARPPLREQQFNSTIRVVSTLPIAHQDWLRGKEFKCKVHNKALPAPIEKTISKARGQPLEPKVYTMGPPREELSSRSVSLTCMINGFYPSDISVEWEKNGKAEDNYKTTPTVLDSDGSYFLYSKLSVPTSEWQRGDVFTCSVMHEALHNHYTQKSISRSPGK
light: MDTRAPTQLLGLLLLWLPGARCADIVVTQTPSSVSAAVGGTVTIKCQASQSISNYFSWYQQKPGQPPKLLIYRASTLASGVPSRFKGSGSGTEFTLTISDLECADAATYYCQCTYGRSNSNFFYGFGGGTEVVVKGDPVAPTVLIFPPAADQVATGTVTIVCVANKYFPDVTVTWEVDGTTQTTGIENSKTPQNSADCTYNLSSTLTLTSTQYNSHKEYTCKVTQGTTSVVQSFNRGDC
B2: 6F9: rabbit anti-α11β1 mAb; heavy chain SEQ ID NO: 183, light chain SEQ ID NO: 184 (antibody)
heavy: METGLRWLLLVAVLKGVQCQSLEESGGDLVKPGASLTLTCTASGSSFSSTYWNCWVRQAPGKGLEWIACINAGSGTTYYASWAKGRFTVSKTSSTTVTLQMTSLTAADTATYFCTRDSDGRFSSGYYFNLWGPGTLVTVSSGQPKAPSVFPLAPCCGDTPSSTVTLGCLVKGYLPEPVTVTWNSGTLTNGVRTFPSVRQSSGLYSLSSVVSVTSSSQPVTCNVAHPATNTKVDKTVAPSTCSKPMCPPPELPGGPSVFIFPPKPKDTLMISRTPEVTCVVVDVSQDDPEVQFTWYINNEQVRTARPPLREQQFNSTIRVVSTLPIAHQDWLRGKEFKCKVHNKALPAPIEKTISKARGQPLEPKVYTMGPPREELSSRSVSLTCMINGFYPSDISVEWEKNGKAEDNYKTTPTVLDSDGSYFLYSKLSVPTSEWQRGDVFTCSVMHEALHNHYTQKSISRSPGK
light: MDTRAPTQLLGLLLLWLPGATFAQVLTQTASPVSAAVGGTVTINCQSSQSVYDNNWLAWYQQKPGQPPKLLIDDASKLTSGVSSRFKGSGSGTQFTLTISGVQCDDAATYYCQGAYYSSGWYWAFGGGTEVVVKGDPVAPTVLIFPPAADQVATGTVTIVCVANKYFPDVTVTWEVDGTTQTTGIENSKTPQNSADCTYNLSSTLTLTSTQYNSHKEYTCKVTQGTTSVVQSFNRGDC
B3: 5D7: rabbit anti-α11β1 mAb; heavy chain SEQ ID NO: 191, light chain SEQ ID NO: 192 (antibody)
heavy: METGLRWLLLVAVLKGVQCQEQLVESGGGLVQPEGSLTLTCKASGFDFSSNAMCWVRQAPGKGLEWIACIYNGDGSTYYASWVNGRFTISKTSSTTVTLQMTSLTAADTATYFCARGLSNWNRDNLWGPGTLVTVSSGQPKAPSVFPLAPCCGDTPSSTVTLGCLVKGYLPEPVTVTWNSGTLTNGVRTFPSVRQSSGLYSLSSVVSVTSSSQPVTCNVAHPATNTKVDKTVAPSTCSKPMCPPPELPGGPSVFIFPPKPKDTLMISRTPEVTCVVVDVSQDDPEVQFTWYINNEQVRTARPPLREQQFNSTIRVVSTLPIAHQDWLRGKEFKCKVHNKALPAPIEKTISKARGQPLEPKVYTMGPPREELSSRSVSLTCMINGFYPSDISVEWEKNGKAEDNYKTTPTVLDSDGSYFLYSKLSVPTSEWQRGDVFTCSVMHEALHNHYTQKSISRSPGK
light: MDTRAPTQLLGLLLLWLPGATFAQVLTQTPSSVSAAVGGTATINCQASQSLYSPKNLAWYQQTPGQPPKLLIYSASKLASGVPSRFKGSGSGTQFTLTISGVQCDDAAIYYCQGEFSCTTAACFAFGGGTEVVVKGDPVAPTVLIFPPAADQVATGTVTIVCVANKYFPDVTVTWEVDGTTQTTGIENSKTPQNSADCTYNLSSTLTLTSTQYNSHKEYTCKVTQGTTSVVQSFNRGDC
B4: 6C7: rabbit anti-α11β1 mAb; heavy chain SEQ ID NO: 185, light chain SEQ ID NO: 186 (antibody)
heavy: METGLRWLLLVAVLKGVQCQQQLEESGGGLVKPGGTLTLTCKASGIDFSSYYYMCWVRQAPGKGLELIVCIYTSSGGTWYASWVNGRLTISRSTSLNTVDLKMTSLTAADTATYFCARGVYSGSSDYPTRLDLWGQGTLVTVSLGQPKAPSVFPLAPCCGDTPSSTVTLGCLVKGYLPEPVTVTWNSGTLTNGVRTFPSVRQSSGLYSLSSVVSVTSSSQPVTCNVAHPATNTKVDKTVAPSTCSKPMCPPPELPGGPSVFIFPPKPKDTLMISRTPEVTCVVVDVSQDDPEVQFTWYINNEQVRTARPPLREQQFNSTIRVVSTLPIAHQDWLRGKEFKCKVHNKALPAPIEKTISKARGQPLEPKVYTMGPPREELSSRSVSLTCMINGFYPSDISVEWEKNGKAEDNYKTTPTVLDSDGSYFLYSKLSVPTSEWQRGDVFTCSVMHEALHNHYTQKSISRSPGK
light: MDTSTSTALLGLLLLWLTGARCAIEMTQSPPSLSASVGETVRIRCLASEDIYSGISWYQQKPEKPPTLLISGASNLESGVPPRFSGGGSGTDYTLTIGGVQAEDVATYYCLGGYSFSSTGLTFGAGTKVEIKRDPVAPSVLLFPPSKEELTTGTATIVCVANKYFPDVTVTWEVDGTTQTTGIENSKTPQNSADCTYNLSSTLTLTSTQYNSHKEYTCKVTQGTTSVVQSFNRGDC
B5: 4E1: rabbit anti-α11β1 mAb; heavy chain SEQ ID NO: 195, light chain SEQ ID NO: 196 (antibody)
heavy: METGLRWLLLVAVLKGVQCQSLEESGGDLVKPGTSLTLSCTASGFSFGSYYYMCWVRQAPGKGLEWIACIDVGSSGDTYYASWVNGRFTISKTSSTTVTLQMTSLTAADTATYFCARDDTAAGGFGNLELWGPGTLVTVSSGQPKAPSVFPLAPCCGDTPSSTVTLGCLVKGYLPEPVTVTWNSGTLTNGVRTFPSVRQSSGLYSLSSVVSVTSSSQPVTCNVAHPATNTKVDKTVAPSTCSKPMCPPPELPGGPSVFIFPPKPKDTLMISRTPEVTCVVVDVSQDDPEVQFTWYINNEQVRTARPPLREQQFNSTIRVVSTLPIAHQDWLRGKEFKCKVHNKALPAPIEKTISKARGQPLEPKVYTMGPPREELSSRSVSLTCMINGFYPSDISVEWEKNGKAEDNYKTTPTVLDSDGSYFLYSKLSVPTSEWQRGDVFTCSVMHEALHNHYTQKSISRSPGK
light: MDTRAPTQLLGLLLLWLPGARCAFELTQTPSSVSEPVGGTVTIKCQASQSIYSYFSWYQQKPGQPPKRLIYQASTLASGVPSRFKGSGSGTDFTLTISDLECADAATYYCQNNYGRGSGSYFFGFGGGTEVVVKGDPVAPTVLIFPPAADQVATGTVTIVCVANKYFPDVTVTWEVDGTTQTTGIENSKTPQNSADCTYNLSSTLTLTSTQYNSHKEYTCKVTQGTTSVVQSFNRGDC

Key:
mouse α11β1 = mouse α11β1 (Mus musculus, UniProt P61622); experiment: ELISA binding to recombinant mouse α11β1; details: binding Yes/No
Outline: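 Absorbance at 450 nm measured binding of serially diluted antibodies to immobilized α11β1 (human or mouse, coated at 0.25 μg/mL). Antibodies were incubated 1 h at room temperature, then detected with biotinylated anti-IgG, streptavidin-HRP and TMB substrate.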

α1β1, α2β1 and/or α10β1 = experiment: Counter-screen for cross-reactivity to other collagen receptors; assay type: binding, human; details: cross-reactivity to α1β1, α2β1, α10β1
Outline: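 Rat- and mouse-derived anti-α11β1 hybridoma supernatants or clones, first identified by ELISA against human and mouse α11β1, were counter-screened by ELISA against human α1β1, α2β1 and α10β1 to assess cross-reactivity to related collagen receptors.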

I domain of α11β1 = target: T1, I domain of α11β1; experiment: ELISA binding to in-house generated I domain of α11β1; details: Yes/No
Outline: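 Plate-coated antigen (0.25 μg/mL, overnight 4° C) probed with antibody dilution series 1 h at room temperature, then biotinylated anti-IgG and streptavidin-HRP, 1 h each. TMB substrate 5 min, stopped, absorbance at 450 nm; in-house I domain of α11β1 used as target.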

[1] = tested on: human pulmonary fibroblasts (HPFs); experiment: FACS antibody binding to human pulmonary fibroblasts; details: binding Yes/No
myofibroblasts (MF) = experiment: FACS antibody binding to myofibroblasts; design: species or system human; details: binding Yes/No
Outline: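 Human pulmonary fibroblasts, serum-starved 24 h then TGFβ-1-treated 72 h to give myofibroblasts, were blocked with heat-inactivated FBS and stained with anti-α11 antibodies, then PE secondary, 30 min each at 4 °C, before 1% PFA fixation. Binding read by flow cytometry as PE geometric MFI of single cells.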

Sequence of mouse α11β1 (P61622 23-1141 limits assumed): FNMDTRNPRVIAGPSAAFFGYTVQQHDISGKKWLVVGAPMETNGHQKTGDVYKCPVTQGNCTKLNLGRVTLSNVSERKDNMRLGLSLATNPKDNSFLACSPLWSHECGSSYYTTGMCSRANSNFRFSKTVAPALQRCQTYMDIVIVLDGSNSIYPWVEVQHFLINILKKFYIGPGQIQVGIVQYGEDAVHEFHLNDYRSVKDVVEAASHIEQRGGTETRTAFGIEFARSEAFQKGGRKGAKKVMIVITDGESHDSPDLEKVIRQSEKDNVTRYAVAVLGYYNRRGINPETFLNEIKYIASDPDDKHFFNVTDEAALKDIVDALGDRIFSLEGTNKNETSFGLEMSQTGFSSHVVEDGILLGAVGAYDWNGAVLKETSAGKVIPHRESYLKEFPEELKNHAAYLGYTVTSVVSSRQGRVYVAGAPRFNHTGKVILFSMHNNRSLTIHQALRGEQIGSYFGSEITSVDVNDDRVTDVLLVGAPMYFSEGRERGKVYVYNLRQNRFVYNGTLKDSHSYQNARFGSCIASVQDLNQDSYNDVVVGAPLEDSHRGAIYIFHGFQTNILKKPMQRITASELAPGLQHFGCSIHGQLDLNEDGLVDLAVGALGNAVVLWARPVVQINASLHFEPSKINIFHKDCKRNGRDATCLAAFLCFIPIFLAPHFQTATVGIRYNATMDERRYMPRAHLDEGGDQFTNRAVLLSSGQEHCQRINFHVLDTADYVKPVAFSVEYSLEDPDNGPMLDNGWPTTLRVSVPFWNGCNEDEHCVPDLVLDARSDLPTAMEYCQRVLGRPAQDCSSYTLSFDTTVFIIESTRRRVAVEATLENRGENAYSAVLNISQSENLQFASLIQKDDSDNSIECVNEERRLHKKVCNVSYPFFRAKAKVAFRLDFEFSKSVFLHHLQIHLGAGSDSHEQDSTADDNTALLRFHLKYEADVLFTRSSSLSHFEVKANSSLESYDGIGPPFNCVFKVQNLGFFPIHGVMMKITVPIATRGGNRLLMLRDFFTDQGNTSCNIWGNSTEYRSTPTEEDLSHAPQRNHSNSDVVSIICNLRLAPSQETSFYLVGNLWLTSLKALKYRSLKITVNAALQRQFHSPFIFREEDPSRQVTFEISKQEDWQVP
Sequence of mouse α11β1 (P09055 21-728 partner limits assumed): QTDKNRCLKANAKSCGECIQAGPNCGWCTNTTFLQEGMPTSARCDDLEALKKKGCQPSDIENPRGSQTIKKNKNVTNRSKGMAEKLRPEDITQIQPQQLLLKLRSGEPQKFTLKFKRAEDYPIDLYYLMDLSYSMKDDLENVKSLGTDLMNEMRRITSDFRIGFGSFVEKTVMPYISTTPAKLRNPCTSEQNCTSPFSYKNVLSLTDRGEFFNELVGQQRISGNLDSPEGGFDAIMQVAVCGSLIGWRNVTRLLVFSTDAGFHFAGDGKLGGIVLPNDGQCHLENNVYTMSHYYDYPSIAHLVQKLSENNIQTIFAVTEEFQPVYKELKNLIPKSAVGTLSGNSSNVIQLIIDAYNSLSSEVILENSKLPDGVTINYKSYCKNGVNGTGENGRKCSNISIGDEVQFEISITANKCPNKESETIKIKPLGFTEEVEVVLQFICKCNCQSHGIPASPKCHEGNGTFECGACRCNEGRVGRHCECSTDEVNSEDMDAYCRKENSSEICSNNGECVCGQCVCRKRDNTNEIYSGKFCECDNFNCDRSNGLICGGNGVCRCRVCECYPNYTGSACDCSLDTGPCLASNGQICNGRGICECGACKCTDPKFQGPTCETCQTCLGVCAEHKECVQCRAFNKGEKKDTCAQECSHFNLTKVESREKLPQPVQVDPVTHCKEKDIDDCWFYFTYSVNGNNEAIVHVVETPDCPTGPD

Molecule | Murine α11β1 ELISA (mouse α11β1) | Off Target (α1β1, α2β1 and/or α10β1) | I Domain binding (I domain of α11β1) | HPF FACS [1] | MF FACS (myofibroblasts (MF))
B1 | No | No | No | No | Yes
B2 | No | No | No | No | Yes
B3 | No | No | No | No | Yes
B4 | No | No | No | No | Yes
B5 | No | No | No | No | Yes
